We go through 1 molecule from doi:10.1101/367656.

In the data set the target is T1, RIG-IΔN (2CARD deletion);RIPLET (Homo sapiens;Homo sapiens, UniProt O95786;Q8IUD6 201-925;1-432, |).
T1 sequence 1: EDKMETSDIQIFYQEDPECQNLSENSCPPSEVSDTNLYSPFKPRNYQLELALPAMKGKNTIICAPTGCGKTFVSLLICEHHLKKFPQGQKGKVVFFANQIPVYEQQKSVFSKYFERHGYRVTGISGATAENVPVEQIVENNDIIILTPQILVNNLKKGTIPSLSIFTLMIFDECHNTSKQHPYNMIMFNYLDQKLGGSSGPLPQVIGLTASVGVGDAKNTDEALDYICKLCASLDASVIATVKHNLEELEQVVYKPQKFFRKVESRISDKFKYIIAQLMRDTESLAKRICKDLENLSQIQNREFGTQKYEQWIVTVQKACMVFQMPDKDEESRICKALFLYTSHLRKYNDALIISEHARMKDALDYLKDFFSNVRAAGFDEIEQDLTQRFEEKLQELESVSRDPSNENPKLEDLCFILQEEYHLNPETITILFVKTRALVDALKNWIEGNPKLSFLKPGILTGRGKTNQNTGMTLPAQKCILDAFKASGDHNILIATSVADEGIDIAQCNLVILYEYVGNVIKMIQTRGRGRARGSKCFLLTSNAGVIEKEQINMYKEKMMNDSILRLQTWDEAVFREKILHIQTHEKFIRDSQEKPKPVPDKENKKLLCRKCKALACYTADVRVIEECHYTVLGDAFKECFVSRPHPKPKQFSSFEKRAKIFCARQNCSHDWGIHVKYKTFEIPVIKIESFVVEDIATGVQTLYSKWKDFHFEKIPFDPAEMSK
T1 sequence 2: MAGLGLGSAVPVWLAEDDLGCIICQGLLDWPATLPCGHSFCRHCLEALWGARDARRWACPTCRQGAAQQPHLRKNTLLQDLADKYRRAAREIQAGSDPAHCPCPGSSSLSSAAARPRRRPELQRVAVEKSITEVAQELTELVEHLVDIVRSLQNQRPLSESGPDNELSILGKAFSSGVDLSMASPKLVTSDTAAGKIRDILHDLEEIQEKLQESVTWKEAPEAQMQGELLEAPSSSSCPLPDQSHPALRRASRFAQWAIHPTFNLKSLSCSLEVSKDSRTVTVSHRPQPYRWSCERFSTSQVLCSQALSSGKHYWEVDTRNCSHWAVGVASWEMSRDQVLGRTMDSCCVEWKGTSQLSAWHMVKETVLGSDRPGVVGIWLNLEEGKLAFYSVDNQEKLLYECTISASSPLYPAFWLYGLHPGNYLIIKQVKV
Briefly: EMSA.

B1: 21 bp dsRNA (dsRNA)
RNA 1: GAGUCACGACGUUGUAAAAAA
RNA 2: UUUUUUACAACGUCGUGACUC
modifications: 5'ppp
Turning to B1, the binding result is “binds”.
